Assay [1] has as its target T1, human sclerostin, mature form (signal peptide removed) (human, UniProt Q9BQB4 24-213).
T1 construct: 190 amino acid glycoprotein; also called SOST; recombinant human sclerostin
T1 sequence: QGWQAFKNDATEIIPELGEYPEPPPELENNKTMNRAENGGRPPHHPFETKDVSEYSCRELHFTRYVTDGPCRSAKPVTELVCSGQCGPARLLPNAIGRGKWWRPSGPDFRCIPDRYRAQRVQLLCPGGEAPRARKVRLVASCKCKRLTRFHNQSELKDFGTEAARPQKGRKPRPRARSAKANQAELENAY
The assay can be described thus: Biacore cross-blocking on immobilised human sclerostin; RU of 1:1 mixture, competitor Ab-A. The method, then:
(§1) The antibodies to be tested were diluted to a concentration of 200 ug/ml in HBS-EP buffer (being 10 mM HEPES pH 7.4, 150 mM NaCl, 3 mM EDTA, 0.005% (v/v) Surfactant P20) and then mixed in a one to one molar ratio (on a binding site basis) to generate the test mixture. This test mixture thus contained each antibody at a concentration of 100 ug/ml (1.3 um on a binding site basis). Separate solutions containing each of the antibodies in the test mix alone were also prepared. These solutions contained the individual antibodies in HBS-EP buffer at a concentration of 100 ug/ml (1.3 um on a binding site basis).
(§2) 20 μL of the test mixture was passed over the sclerostin-coated chip at a flow rate of 10 μL/min and the amount of binding recorded. The chip was then treated with two 60 second pulses of 30 mM HCl to remove all of the bound antibody. A solution containing only one of the antibodies of the test mixture (at 1.3 μM in the same buffer as the test mixture on a binding site basis) was then passed over the chip in the same manner as the test mixture and the amount of binding recorded. The chip was again treated to remove all of the bound antibody and finally a solution containing the other antibody from the test mixture alone (at 1.3 μM in the same buffer as the test mixture on a binding site basis) was passed over the chip and the amount of binding recorded.
(§3) The table below show the results from cross-blocking assays on a range of different antibodies. The values in each square of the table represent the amount of binding (in RU) seen when the antibodies (at 1.3 μM on a binding site basis) or buffer indicated in the top row of the table were mixed with the antibodies (at 1.3 uM on a binding site basis) or buffer indicated in the first column of the table.
In general terms: SPR reads the build-up and loss of mass on a sensor chip optically.

Assay [2] addresses T1, human sclerostin, mature form (signal …). The assay can be described thus: Biacore cross-blocking on immobilised human sclerostin; RU of 1:1 mixture, competitor Ab-4. As for the experimental part: as §1, §2, §3
The target is the same in assay [3]. Put plainly: Biacore cross-blocking on immobilised human sclerostin; RU of 1:1 mixture, competitor Ab-3. The method, then: as §1, §2, §3
The target of assay [4] is T2, rat sclerostin peptide KWWRPNGPDFRCIPDRYRAQRV (rat).
T2 construct: Coupled to the plate through its cysteine
T2 peptide: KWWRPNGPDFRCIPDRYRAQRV
Put plainly: ELISA on rat sclerostin peptides coupled to sulfhydryl binding plates, antibody at 1 ug/ml. The method, then: A series of overlapping peptides (each peptide being approximately 20-25 amino acids long) were synthesized based on the known amino acid sequence of rat sclerostin (SEQ ID NO:98). […] This enabled the peptides to be bound to the assay plates by covalent coupling, using commercially available sulfhydryl binding plates (Costar), at a concentration of […], in phosphate buffered saline (PBS: pH 6.5) containing 1 mM EDTA. Following incubation for 1 hour at room temperature, the plates were washed three times with PBS containing 0.5% Tween 20. The plates were blocked by incubation with a PBS solution containing 0.5% fish skin gelatin (Sigma) for 30 minutes at room temperature and then washed three times in PBS containing 0.5% Tween 20.
Antibodies to be tested were diluted to 1 μg/ml in PBS containing 0.5% fish skin gelatin and incubated with the peptide-coated plates for 1 hour at room temperature. Excess antibody was removed by three washes with PBS, 0.5% Tween 20. […] Finally the plates were incubated with a horseradish peroxidase chromogenic substrate (TMB-Stable Stop, RDI) for 5 minutes at room temperature, the color development was stopped with acid, and the plates' optical density measured at 450 nm.
For orientation: An ELISA detects its analyte on a solid surface through an enzyme-linked reagent.

In assay [5] the target is T1, human sclerostin, mature form (signal …). The assay can be described thus: Biacore cross-blocking on immobilised human sclerostin; RU of 1:1 mixture, competitor Ab-13. As for the experimental part: as §1, §2, §3
Assay [6] has the same target. The assay can be described thus: Biacore cross-blocking on immobilised human sclerostin; RU of 1:1 mixture, competitor Ab-19. As for the experimental part: as §1, §2, §3

B1: Antibody 19 (antibody, V domains shown)
VH: EVQLQQSGPELVKPGASVKMSCKASGFTFTDYIMHWVKQKPGQGLEWIGYINPYNDDTEYNEKFKGKATLTSDKSSSTAYMDLSSLTSEGSAVYYCARSIYYYDAPFAYWGQGTLVTVSS
VL: DIQMTQTTSSLSASLGDRVNISCRASQDISSYLNWYQQKPDGTVKLLIYSTSRLNSGVPSRFSGSGSGTDYSLTISNLAQEDIATYFCQQDIKHPTFGGGTKLELKR
notes: also called Ab-19
Regarding B1, the “binding (RU)” value in assay [1] came out at 863 RU; in assay [2], 789 RU; in assay [3] it was 892 RU; in assay [5] it was 1020 RU. Also, the binding result in assay [4] was “binds”.

B2: Antibody 3 (antibody, mouse IgG1, kappa)
light: EIVLTQSPALMAASPGEKVTITCSVSSTISSNHLHWFQQKSDTSPKPWIYGTSNLASGVPVRFSGSGSGTSYSLTISSMEAEDAATYYCQQWSSYPLTFGAGTKLELRRADAAPTVSIFPPSSEQLTSGGASVVCFLNNFYPKDINVKWKIDGSERQNGVLNSWTDQDSKDSTYSMSSTLTLTKDEYERHNSYTCEATHKTSTSPIVKSFNRNEC
heavy: EVQLQQSGAELVRPGALVKLSCTASDFNIKDFYLHWMRQRPEQGLDWIGRIDPENGDTLYDPKFQDKATLTTDTSSNTAYLQLSGLTSETTAVYYCSREADYFHDGTSYWYFDVWGAGTTITVSSAKTTPPSVYPLAPGSAAQTNSMVTLGCLVKGYFPEPVTVTWNSGSLSSGVHTFPAVLQSDLYTLSSSVTVPSSTWPSETVTCNVAHPASSTKVDKKIVPRDCGCKPCICTVPEVSSVFIFPPKPKDVLTITLTPKVTCVVVDISKDDPEVQFSWFVDDVEVHTAQTQPREEQFNSTFRSVSELPIMHQDWLNGKEFKCRVNSAAFPAPIEKTISKTKGRPKAPQVYTIPPPKEQMAKDKVSLTCMITDFFPEDITVEWQWNGQPAENYKNTQPIMDTDGSYFIYSKLNVQKSNWEAGNTFTCSVLHEGLHNHHTEKSLSHSPGK
notes: also called Ab-3
With B2, the “binding (RU)” value in assay [1] amounted to 952 RU; in assay [2], 845 RU; in assay [6], 896 RU; in assay [5], 428 RU.

B3: Antibody A (antibody, mouse IgG1, kappa, V domains shown)
VH: QSLEESGGRLVTPGTPLTLTCTASGFSLSSYWMNWVRQAPGEGLEWIGTIDSGGRTDYASWAKGRFTISRTSTTMDLKMTSLTTGDTARYFCARNWNLWGQGTLVTVSS
VL: AQVLTQTPASVSAAVGGTVTINCQSSQSVYDNNWLAWFQQKPGQPPKLLIYDASDLASGVPSRFSGSGSGTQFTLTISGVQCADAATYYCQGAYNDVIYAFGGGTEVVVKR
notes: Rabbit-mouse chimeric antibody; mature chains (signal peptides cleaved off); also called Ab-A; Mab-A
For the molecule B3, the “binding (RU)” value is 833 RU in assay [2], 946 RU in assay [3], 868 RU in assay [6] and 1080 RU in assay [5].

B4: Antibody 4 (antibody, mouse IgG1, kappa, V domains shown)
VH: EVQLQQSGPELMKPGASVKMSCKASGYTFTDYNMHWVKQNQGKTLEWIGEINPNSGGAGYNQKFKGKATLTVDKSSTTAYMELRSLTSEDSAVYYCARLGYDDIYDDWYFDVWGAGTTVTVSS
VL: DIQMTQITSSLSASLGDRVSISCRASQDISNYLNWYQQKPDGTFKLLIFYTSRLLSGVPSRFSGSGSGTDYSLTIYNLEQEDFATYFCQQGDTLPYTFGGGTKLEIKR
notes: also called Ab-4
On to B4, for which the “binding (RU)” value was 860 RU in assay [1], 869 RU in assay [3], 822 RU in assay [6] and 1020 RU in assay [5].

B5: Antibody 13 (antibody, mouse IgG1, kappa, V domains shown)
VH: EVQLQQSGPELVKPGASVKMSCKASGYTFTDYYMNWVKQSHGESLEWIGDINPYNDDTTYNHKFKGKATLTVDKSSNTAYMQLNSLTSEDSAVYYCARETAVITTNAMDYWGQGTSVTVSS
VL: QIVLTQSPAIMSASPGEKVTMTCRASSSVTSSYLNWYQQKPGSSPKLWIYSTSNLASGVPARFSGSGSGTSYSLTISSVEAEDAATYYCQQYDFFPSTFGGGTKLEIKR
notes: … = EVQ); also called Ab-13
Turning to B5, the “binding (RU)” value is 1110 RU in assay [1], 1010 RU in assay [2], 432 RU in assay [3] and 1040 RU in assay [6].

These data come from patent publication US20070110747A1 (Amgen, published 2007).
